By TGI is commonly meant how far tumour growth fell short of that in controls. The term T/C denotes the ratio of treated to control.

Experimental findings from patent publication US20240398942A1, “USE OF ANTI-CD40 ANTIBODY” (CHIA TAI TIANQING PHARMACEUTICAL GROUP CO., LTD., priority 2021, published 2024) are described below.

Several values for one entry are separate records, joined by “and”; a condition that tells them apart may be missing. Equal values may be shown once. Read-outs that look alike come from different tables or passages of the source. Marks after values point to notes of the source that are not given here.

Data set [1] concerns the target binding of the benchmark (BM2) to human CD40 (Homo sapiens, UniProt P25942). Nature of the data set: Benchmark blocking competitive ELISA. The settings on record: in words, FIG. 6. The procedure:
The ability of the anti-CD40 antibody of the present application to block the binding of the benchmark to human CD40 was determined by competitive ELISA. Briefly, BM2 antibody was immobilized on a 96-well micro plates at 1 μg/mL in PBS, 100 µL/well, and incubated overnight at 4° C. The next day, the plate was washed once with a washing buffer before a blocking buffer (PBST containing 5% w/v of skim milk) was added. The plate was then incubated at 37° C. for 2 h for blocking. During the blocking of the 96-well plate, the anti-CD40 antibody of the present application or the benchmark was serially 5-fold diluted from 66.7 nM with a biotinylated human CD40-Fc protein (amino acid residues 21-193 of SEQ ID NO: 30 linked to the N terminus of amino acid residues 99-330 of SEQ ID NO: 28, dissolved in PBST containing 2.5% w/v of skim milk at a concentration of 0.23 nM) and then incubated at room temperature for 40 min. After the plate was washed 4 times, the antibody/biotinylated human CD40-Fc mixture was added at 100 μL/well to the plate coated with BM2. The plate was incubated at 37° C. for 40 min and again washed 4 times with the washing buffer. […] The absorbance was read on a microplate reader using the dual wavelength mode (TMB detection wavelength: 450 nm, reference wavelength: 630 nm). […] Data were analyzed using Graphpad Prism software, and IC50 values were obtained.
On the technique in general: ELISA stands for enzyme-linked immunosorbent assay.

Data set [2] concerns the target Cynomolgus monkey CD40-his. Put plainly: Biacore surface plasmon resonance affinity and binding kinetics. The settings on record: Table 5, Biacore; for Ka: purified antibodies. From the text:
(§1) The affinity and binding kinetics of the anti-CD40 antibody in the present application were characterized by a Biacore T200 system (GE Healthcare, Pittsburgh, PA, USA).
(§2) Briefly, a goat anti-human IgG (GE Healthcare, Cat. No. BR100839, human antibody capture kit) was covalently linked to a CM5 chip (GE Healthcare, Cat. No. BR100530, carboxymethylated dextran-coated chip) via the primary amine group using a standard amine coupling kit supplied by Biacore (GE Healthcare, Pittsburgh, PA, USA). Unreacted portions on the biosensor surface were blocked with ethanolamine. Then, the anti-CD40 antibody of the present application and two benchmark antibodies (BM1 (dacetuzumab, Genentech Inc., also referred to CD40-BM1, prepared in-house; the heavy and light chain amino acid sequences are set forth in SEQ ID NOs: 40 and 41, respectively) and BM2 (selicrelumab, Abgenix Inc., also referred to CD40-BM2, prepared in-house; the heavy and light chain amino acid sequences are set forth in SEQ ID NOS: 42 and 43, respectively)) at a concentration of 66.67 nM were directed through the chip at a flow rate of 10 μL/min. Then, serially diluted recombinant human CD40-his (Acro biosystems, Cat. No. CD0-H5228, serially 2-fold diluted from 80 nM in HBS-EP^+ buffer (supplied by Biacore)) or cynomolgus monkey CD40-his protein (Acro biosystems, Cat. No. CD0-C52H6, serially 2-fold diluted from 80 nM in HBS-EP^+ buffer (supplied by Biacore)) was directed through the chip at a flow rate of 30 μL/min. The antigen-antibody binding kinetics was tracked for 2 min and the dissociation kinetics was tracked for 10 min. The association and dissociation curves were fitted to a 1:1 Langmuir binding model using BIAcore evaluation software. KD, Ka, and Kd values were determined.

For the next data set, the target named is T1, Human CD40-his (Homo sapiens, UniProt P25942).
T1 construct: His; purchased Acro biosystems CD0-H5228
T1 sequence (P25942 21-277): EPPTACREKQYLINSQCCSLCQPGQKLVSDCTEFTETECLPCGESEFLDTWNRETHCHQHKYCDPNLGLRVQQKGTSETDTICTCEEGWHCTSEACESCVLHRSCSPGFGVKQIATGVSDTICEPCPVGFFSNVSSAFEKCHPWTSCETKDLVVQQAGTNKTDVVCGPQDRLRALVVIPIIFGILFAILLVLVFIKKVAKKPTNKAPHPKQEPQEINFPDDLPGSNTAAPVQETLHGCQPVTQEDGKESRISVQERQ
Described as above. The settings on record: Table 5, Biacore; for Ka: purified antibodies.
From the text: as §1, §2
For orientation: In SPR one partner is held on a chip, and binding of the other changes the refractive index at the surface.

Data set [3] relates to human B-cell lymphoma Ramos cells. Nature of the data set: In vivo anti-tumor efficacy, human B-cell lymphoma Ramos xenograft model. The settings on record: for Tumor volume on day 0: baseline at grouping; for Tumor volume on day 0 / Tumor volume on day 14: mean ± standard error; for TGI: day 14; for T/C: day 14 vs isotype control. The procedure:
The in vivo anti-tumor activity of antibody huC1H1-V2 was measured in NOD-SCID mice. Briefly, 3×10^7 human B-cell lymphoma Ramos cells (Chinese Academy of Sciences) were injected subcutaneously in the right axilla of NOD-SCID mice. The tumor volume was measured using an electronic vernier caliper and calculated according to the formula (length×width^2)/2. When the mean tumor volume reached about 100-150 mm^3, 40 tumor-bearing mice were selected and randomly divided into 4 groups (10 mice per group), with the date of grouping designated as day 0. According to the administration regimen shown in Table 6, the mice were intravenously administered with the isotype control antibody (anti-HEL-Human IgG2 Isotype-control, also referred to as IgG2, Biointron Inc.) or antibody huC1H1-V2 via tail veins since day 0.
Background: A xenograft is tissue or cells of one species grown in another, often human tumour cells in immunodeficient mice.

Data set [4] is described as follows: Protein thermal shift assay (GloMelt). The settings on record: 25-99 °C melt curve. It is filed as physicochemical. The procedure: A thermal stability assay was also conducted on humanized antibody huC1H1-V2. Tm (melting temperature) was determined by protein thermal shift assay using the GloMelt™ thermal shift protein stability kit (Biotium, Cat. No. 33022-T). Briefly, the GloMelt™ dye was thawed to room temperature. The vial containing the dye was vortexed and centrifuged. Then, 5 μL of the 200× dye solution was added to 95 μL of PBS to prepare a 10× dye solution. 2 μL of the 10× dye solution and 10 μg of the humanized antibody were added to the reaction system, and PBS was added to bring the total reaction volume to 20 μL. The centrifuge tubes containing the dye and the antibodies were centrifuged briefly and placed in a real-time PCR thermal cycler (Roche, LightCycler 480 II) in which the parameters of the Melt Curve program are shown in Table 4.

binding of the benchmark (BM2) to human CD40, sequence (P25942 21-193): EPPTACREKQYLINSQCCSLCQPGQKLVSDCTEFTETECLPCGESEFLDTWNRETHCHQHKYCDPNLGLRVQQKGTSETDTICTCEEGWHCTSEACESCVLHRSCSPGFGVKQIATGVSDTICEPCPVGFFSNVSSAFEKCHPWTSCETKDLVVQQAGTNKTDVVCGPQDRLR

B1: huC1H1-V1: humanized C1H1 anti-CD40 antibody, VH SEQ ID NO: 20 X1=A, VL SEQ ID NO: 24 X1=K X2=F, human IgG2/κ (antibody, V domains shown)
VH: EVQLVESGGGLVKPGGSLRLSCAASGFTFSNYGISWVRQAPGKGLEWVXSISSGGDNTYYPDNVKGRFTISRDNAKNSLYLQMNSLRAEDTAVYYCARAGEKAMDYWGQGTLVTVSS
VL: EIVLTQSPATLSLSPGERATLSCRASQTINNNLHWYQQKPGQAPRLLIXYASQSISGIPARFSGSGSGTDFTLTISSLEPEDFAVYXCQQFSSWPLTFGGGTKVEIK
modifications: not fully specified; human IgG2/kappa constant regions; VH of huC1H1-V1 to huC1H1-V4; VARIANT 49 X can be A or S; VL of huC1H1-V1 to huC1H1-V4; VARIANT 49 X can be K or Y; VARIANT 87 X can be F or Y
As for B1, the “Blocking of the binding of human CD40 to BM2” value in data set [1] is listed as “able to block the binding of human CD40 to BM2”. In addition, the Kd in data set [2] (dissociation rate) is 0.002371 s⁻¹; in data set [2] (read-out: KD), 1.11 nM; in the data set with Human CD40-his (dissociation rate), 0.00248 s⁻¹; with Human CD40-his (read-out: KD), 1.1 nM. The Ka in data set [2] was determined as 2.14e+06 M⁻¹ s⁻¹; with Human CD40-his it was 2.25e+06 M⁻¹ s⁻¹.

B2: huC1H1-V2: humanized C1H1 anti-CD40 antibody, VH SEQ ID NO: 20 X1=S, VL SEQ ID NO: 24 X1=K X2=F, human IgG2/κ (antibody, V domains shown)
VH: B1 VH
VL: B1 VL
modifications: not fully specified; variable positions X1=S; VL X1=K X2=F; IgG2/kappa constant; VH of huC1H1-V1 to huC1H1-V4; VARIANT 49 X can be A or S; VL of huC1H1-V1 to huC1H1-V4; VARIANT 49 X can be K or Y; VARIANT 87 X can be F or Y
Turning to B2, the “Blocking of the binding of human CD40 to BM2” value in data set [1] is given as “able to block the binding of human CD40 to BM2”. The figures for the “Tumor volume on day 0” value in data set [3] (1.5 mg/kg i.v. Q2D × 8 doses), in data set [3] (5 mg/kg i.v. Q2D × 8 doses) and in data set [3] (15 mg/kg i.v. Q2D × 8 doses) were 111.1 ± 2.0 mm^3, 114.5 ± 1.5 mm^3 and 114.3 ± 1.3 mm^3, respectively. Besides, the “Tumor volume on day 14” value in data set [3] (1.5 mg/kg i.v. Q2D × 8 doses) was 431.9 ± 58.0*** mm^3; in data set [3] (5 mg/kg i.v. Q2D × 8 doses), 230.2 mm^3 and 230.2 ± 36.3*** mm^3; in data set [3] (15 mg/kg i.v. Q2D × 8 doses), 242.5 ± 22.1*** mm^3. In addition, the inhibition of tumour growth (TGI) in data set [3] (1.5 mg/kg i.v. Q2D) worked out at 88%; in data set [3] (5 mg/kg i.v. Q2D), 96%; in data set [3] (15 mg/kg i.v. Q2D) it was 95%. The T/C stood at 12% in data set [3] (1.5 mg/kg i.v. Q2D), 4% in data set [3] (5 mg/kg i.v. Q2D) and 5% in data set [3] (15 mg/kg i.v. Q2D). Besides, the “Tolerability (weight loss or other symptoms)” value in data set [3] (1.5, 5, 15 mg/kg i.v. Q2D × 8 doses, tumor-bearing mice) was “well tolerated”. In addition, the Kd worked out at 0.002735 s⁻¹ in data set [2] (dissociation rate), 1.07 nM in data set [2] (read-out: KD), 0.002704 s⁻¹ with Human CD40-his (dissociation rate) and 1.17 nM with Human CD40-his (read-out: KD). The Ka in data set [2] was determined as 2.56e+06 M⁻¹ s⁻¹; with Human CD40-his it was 2.31e+06 M⁻¹ s⁻¹. The “Tm (melting temperature)” value in data set [4] amounted to 70 °C.
